Results: US20240279345A1, “ALPHA 5 BETA 1 INTEGRIN BINDING AGENTS AND USES THEREOF” (PASITHEA THERAPEUTICS CORP., priority 2021, published 2024)
Numbering of substitutions follows the chain as printed.

Tests used:
[1] = biological target: purified recombinant human α5β1 integrin heterodimer, 6×His tagged (rh-α5β1; Acro Biosystems, cat. no. IT1-H52W5) (human) (UniProt P08648); experiment: ELISA, inhibition of rh-α5β1-His binding to coated FN, isotype control (data normalised to it)
[2] = biological target: purified recombinant human α5β1 integrin heterodimer (rh-α5β1; Acro Biosystems, cat. no. IT1-H52W5) (human) (UniProt P08648); experiment: Conformation assay ELISA: plate coated with 12G10, soluble 12G10 dilution series premixed with His-tagged rh-α5β1 and 0.5 mM MnCl2, captured α5β1 detected by anti-6xHis; competitor on the plate: 12G10 itself
[3] = biological target: T1, purified recombinant human α5β1 integrin heterodimer (rh-α5β1; Acro Biosystems, cat. no. IT1-H52W5) (human, UniProt P08648 42-995; P05556 21-728); experiment: FN-blocking ELISA
T1 construct: Bought protein; 6×His tagged; also called rh-α5β1-6×His tagged protein; His-tagged-α5β1
Protocol: Following 1 hour at RT, the wells were washed 3 times, incubated with biotinylated Anti-6×His-Tag Ab (Invitrogen, Carlsbad, CA, cat. no. MAI-21315-BTIN) at 1:1000 in Standard Diluent for 1 hour, washed 3 times, incubated for 30 minutes with poly-HRP Streptavidin (Thermo Fisher Scientific, Waltham, MA, cat. no. N200), washed 4 times, incubated with TMB substrate (Thermo Fisher Scientific, Waltham, MA, cat. no. N301) for 2-5 minutes, followed by addition of ELISA Stop Solution (Invitrogen, Carlsbad, CA, cat. no. SS04). Absorbance 450 nm was measured. Data points were normalized to the isotype Control Ab values at each concentration and reported as % Absorbance 450 nm normalized to Control Ab. Non-linear regression analysis was used to fit curves (4-parameter) to the data using GraphPad Prism version 9.0.2 (GraphPad Software, LLC, San Diego, CA).

[4] = biological target: T1, purified recombinant human α5β1 …; experiment: Conformation assay ELISA: plate coated with 12G10, antibody dilution series premixed with His-tagged rh-α5β1 and 0.5 mM MnCl2, captured α5β1 detected by anti-6xHis; competitor on the plate: 12G10
Protocol: Plates were then washed 3 times with Wash Buffer (1× Tris Buffered Saline containing 0.05% Tween20), then blocked with 2% BSA in 1×TBS for 2 hours at room temperature (RT). […] After 1 hour at RT, the wells were washed 3 times, incubated with biotinylated Anti-6×His-Tag Ab (Invitrogen, Carlsbad, CA, cat. no. MAI-21315-BTIN) at 1:1000 in Standard Diluent for 1 hour, washed 3 times, incubated for 30 minutes with poly-HRP Streptavidin (Thermo Fisher Scientific, Waltham, MA, cat. no. N200), washed 3 times, incubated with TMB substrate (Thermo Fisher Scientific, Waltham, MA, cat. no. N301) for 2-5 minutes, followed by addition of ELISA Stop Solution (Invitrogen, Carlsbad, CA, cat. no. SS04). Absorbance 450 nm was measured.

[5] = biological target: α5β1 integrin on cells (PMA-activated K562 cells; U87MG cells) (human) (UniProt P08648); experiment: flow cytometry on PMA-activated K562 cells, hybridoma supernatant
[6] = biological target: recombinant human α5β1 integrin (human) (UniProt P08648); experiment: ELISA, coated integrin, supernatant 1:10
[7] = biological target: recombinant human α4β1 integrin (human) (UniProt P13612); experiment: ELISA, coated integrin, supernatant 1:10
[8] = biological target: purified recombinant human α5β1 integrin heterodimer, 6×His tagged (rh-α5β1; Acro Biosystems, cat. no. IT1-H52W5) (human) (UniProt P08648); experiment: BLI (Octet), supernatant mAb on anti-mouse IgG Fc sensor, 20 nM rh-α5β1
[9] = biological target: T2, recombinant mouse α5β1 integrin (mouse, UniProt P11688 45-999; P09055 21-728); experiment: ELISA, coated integrin, supernatant 1:10
T2 construct: bought recombinant heterodimer (R&D Systems cat. 7728-A5) coated on the plate; also called rm-α5β1
Protocol: Plates were washed 3 times with Wash Buffer (1× Tris Buffered Saline containing 0.05% Tween20), blocked with 2% BSA in 1×TBS (made from 10× Thermo Scientific Blocker BSA (10×) in TBS; Thermo Fisher Scientific, Waltham, MA, cat. no. 37520) for 2 hours at room temperature (RT) then incubated with hybridoma supernatants diluted 1:10 with Standard Diluent (2% BSA, 1×TBS, 0.05% Tween20). […] Absorbance 450 nm was measured.

## Isotype control antibody (Ms IgG2a, EMD Millipore, cat. no. PP102)
[1]
  % Max Inhibition: 0%

## 12G10 (mouse anti-human integrin beta1/CD29 antibody, Novus Biologicals, cat. no. NB100-63255)
[2]
  IC50 (read off the curve): 0.08 µg/mL

B1: A-15B08 IgG4 Chimera (antibody, V domains shown)
VH: QVQLKESGPGLVAPSQSLSITCTISGFSLTSYGVHWVRQPPGKGLEWLVVIWSDGSTTYNSTLKSRLSISKDNSKSQVFFKMNSLQTDDTAMYYCARHYDYDGDWFAYWGQGTLVTVSA
VL: QIVLTQSPAIMSASLGERVTMTCTASSRVSSNSLHWYQQKPGSSPKLWIYSTSNLASGVPARFSGSGSGTSYSLTISSMEAEDAATYYCHQYLRSPPTFGGGTKLEIK
notes: heavy chain glycosylated at the NST site of CDRH2; also called A-15B08 (human IgG4 chimeric antibody)
[3]
  fold potency (IC50) against the mouse hybridoma antibody it was derived from: ~2 fold
[4]
  IC50 (read off the curve): ~0.02 µg/mL

B2: C-14D12 IgG4 Chimera (antibody, V domains shown)
VH: QVQLKESGPDLVAPSQSLSITCTVSGFSLTDYGVHWVRQPPGKGLEWLVVIWSDGSTTYNSALKSRLSITKDTSKRQVFLKMNSLQTDDTAMYYCARHAPSFIRYGSRYDALDYWGQGTSVTVSS
VL: B1 VL with M21L, R28S, S30T, N32S, S33F, L93H
notes: also called C-14D12 (human IgG4 chimeric antibody)
[3]
  fold potency (IC50) against the mouse hybridoma antibody it was derived from: ~2 fold
[4]
  IC50 (read off the curve): ~0.02 µg/mL

B3: A-15C03 (antibody, part only; not given: light chain, V domains shown, part only)
VH: QVQLKESGPGLVAPSQSLSITCTISGFSLTTYGVHWVRQPPGKGLEWLVVIWSDGSTTYNSALKSRLNITKDNSKSQVFLKMNSLQTDDTAMYYCVRHGGLLRRDAMDYWGQGTSVTVSS
[5]
  MFI: 1970
[6]
  Absorbance 450 nm: 0.478 A450
[7]
  Absorbance 450 nm: 0.0793 A450
[8]
  Kd: 4.67 nM
  koff: 0.00129 s⁻¹
  kon: 276000 M⁻¹ s⁻¹
[9]
  Absorbance 450 nm: 0.0709 A450
